According to article PMC8639797 (Nature, 2021):
Residue numbers refer to the chain shown, from its start. In names and notes the source's numbering stands.

What was measured:
AUC = target: the molecule itself; experiment: AUC
[1] = target: ALK-ECR^ABR−4M (T686A/N787A/Q788A/I795A) (human, UniProt Q9UM73 673-1025, T686A | N787A | Q788A | I795A); experiment: SEC-MALS + AUC
[2] = target: ALK-ECR^ABR (residues 673–1025) (human); experiment: SEC-MALS
SEC-MALS + AUC = target: the molecule itself; experiment: SEC-MALS + AUC

B1: MBP-ALKAL2^C66Y (ligand, human)
chain: AEPREPADGQALLRLVVELVQELRKHHSAEHKGLQLLGRDYALGRAEAAGLGPSPEQRVEIVPRDLRMKDKFLKHLTGPLYFSPKCSKHFHRLYHNTRDCTIPAYYKRCARLLTRLAVSPVCMEDKQ
B1 showed a Kd (AUC) of 38 ± 6 µM.

B2: ALKAL2^2M (full-size ALKAL2^C66Y with I127A/Y130A) (ligand, human, UniProt Q6UX46 26-152, looked up)
chain: B1 chain with I102A, Y105A
With B2 the “stoichiometry N” value [1] was 1.

B3: ALKAL2^C66Y (full-size, MBP removed) (ligand, human)
chain: B1 chain
For B3, the “stoichiometry N” value [2] was 1.

B4: ALK ECR^ABR−4M:ALKAL2^2M 1:1 complex (complex, human)
chain 1: QTPIFDPTVHWLFATCGASGPHGPTQAQCNNAYQNSNLSVEVGSEGPLKGIQIWKVPATDTYSISGYGAAGGKGGKNTMMRSHGVSVLGIFNLEKDDMLYILVGQQGEDACPSTAALIQKVCAGENNVIEEEIRVNRSVHEWAGGGGGGGGATYVFKMKDGVPVPLIIAAGGGGRAYGAKTDTFHPERLENNSSVLGLNGNSGAAGGGGGWNDNTSLLWAGKSLQEGATGGHSCPQAMKKWGWETRGGFGGGGGGCSSGGGGGGYIGGNAASNNDPEMDGEDGVSFISPLGILYTPALKVMEGHGEVNIKHYLNCSHCEVDECHMDPESHKVICFCDHGTVLAEDGVSCIVSP
chain 2: B1 chain with I102A, Y105A
In the case of B4, the “fold reduction of dimerization to the 2:2 complex against the wild-type complex” value (SEC-MALS + AUC) is reported as 5 fold.

B5: ALK-ECR^ABR–ALKAL2^C66Y 1:1 heterodimeric complex (complex, human)
chain 1: B4 chain 1 with A14T, A115N, A116Q, A123I
chain 2: B1 chain
Work on B5 yielded a Kd (SEC-MALS + AUC) of roughly 3.2 µM.
